Results on five molecules are retold here after PMC13572447, “USP5 acts as a proteolytic switch to control SDE2 function via UBL-directed cleavage” (Nature Communications, 2026).

Numbering of substitutions follows the chain as printed. Numbers in names are those of the source.

T1: USP5 C335R, recombinant (human, UniProt P45974-1 1-858, C335R)
T1 construct: ubiquitin-specific protease 5 (USP5), human, Cys335 changed to Arg; source: E. coli BL21 (DE3), purified (Ni-NTA, SEC Superdex 200)
T1 sequence (looked up): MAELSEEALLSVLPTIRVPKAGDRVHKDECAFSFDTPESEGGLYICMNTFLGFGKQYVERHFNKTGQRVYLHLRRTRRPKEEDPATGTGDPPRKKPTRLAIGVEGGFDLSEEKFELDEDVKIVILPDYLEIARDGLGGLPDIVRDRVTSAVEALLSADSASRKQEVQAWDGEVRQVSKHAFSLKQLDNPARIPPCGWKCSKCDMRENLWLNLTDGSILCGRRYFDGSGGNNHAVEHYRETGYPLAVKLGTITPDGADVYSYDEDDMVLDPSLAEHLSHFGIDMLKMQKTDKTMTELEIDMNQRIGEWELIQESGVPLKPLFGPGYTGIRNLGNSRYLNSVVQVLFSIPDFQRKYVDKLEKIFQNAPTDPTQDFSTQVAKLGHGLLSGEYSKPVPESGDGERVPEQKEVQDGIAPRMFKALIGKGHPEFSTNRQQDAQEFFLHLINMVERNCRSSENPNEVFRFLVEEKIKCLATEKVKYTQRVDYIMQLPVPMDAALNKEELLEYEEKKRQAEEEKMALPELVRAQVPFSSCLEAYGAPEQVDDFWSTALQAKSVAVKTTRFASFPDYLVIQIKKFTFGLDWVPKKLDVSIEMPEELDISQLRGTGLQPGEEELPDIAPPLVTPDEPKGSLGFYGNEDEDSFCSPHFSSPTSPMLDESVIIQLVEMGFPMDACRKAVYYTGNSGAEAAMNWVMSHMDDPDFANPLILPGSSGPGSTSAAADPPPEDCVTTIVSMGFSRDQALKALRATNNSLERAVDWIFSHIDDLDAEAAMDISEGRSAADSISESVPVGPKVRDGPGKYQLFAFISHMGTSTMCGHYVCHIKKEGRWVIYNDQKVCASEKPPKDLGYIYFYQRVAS

B1: SDE2 ubiquitin-like domain, SDE2UBL(1-77) (domain or fragment, human, UniProt Q6IQ49-1 1-77, looked up)
chain: MAEAAALVWIRGPGFGCKAVRCASGRCTVRDFIHRHCQDQNVPVENFFVKCNGALINTSDTVQHGAVYSLEPRLCGG
notes: Silencing Defective 2 (SDE2), human, N-terminal ubiquitin-like domain, residues 1-77, ending in the free Gly76-Gly77 motif; also called SDE2 1-77; source: E. coli BL21 (DE3), purified (Ni-NTA, SUMO protease, reverse Ni-NTA, SEC Superdex 75); not shown: His, N-terminal, cleaved; SUMO, N-terminal, cleaved
B2: wild-type USP5 (ubiquitin-specific protease 5), recombinant (enzyme, human, UniProt P45974-1 1-858, looked up)
chain: T1 sequence (looked up) with R335C
notes: ubiquitin-specific protease 5 (USP5), human; No removal of the His tag is described; the TR-FRET assay detects the His-tagged protein with an anti-His6 antibody; also called USP5^WT; His-USP5; source: E. coli BL21 (DE3), purified (Ni-NTA, SEC Superdex 200)
B3: catalytically inactive USP5 C335A, recombinant (enzyme, human, UniProt P45974-1 1-858, looked up)
chain: T1 sequence (looked up) with R335A
notes: ubiquitin-specific protease 5 (USP5), human, catalytic Cys335 changed to Ala; Named His-USP5^C335A in the TR-FRET assay; also called His-USP5^C335A; source: E. coli BL21 (DE3), purified (Ni-NTA, SEC Superdex 200)
B4: HA-SDE2UBL-PA activity-based probe (domain or fragment, human, UniProt Q6IQ49-1 1-76, looked up)
chain: MAEAAALVWIRGPGFGCKAVRCASGRCTVRDFIHRHCQDQNVPVENFFVKCNGALINTSDTVQHGAVYSLEPRLCG
modifications: C-terminal propargylamide: Gly77 replaced with a propargyl electrophilic warhead
notes: Silencing Defective 2 (SDE2), human, ubiquitin-like domain residues 1-76; Reacts covalently with the catalytic cysteine of the protease that recognises it; also called HA-SDE2UBL-ABP; SDE2UBL probe; not shown: HA, N-terminal, kept
B5: SDE2UBL without the terminal Gly77 (domain or fragment, human, UniProt Q6IQ49-1 1-76, looked up)
chain: B4 chain
notes: Silencing Defective 2 (SDE2), human, ubiquitin-like domain with the terminal Gly77 removed (residues 1-76); also called SDE2UBLΔG77

Common to all, as to details: both partners purified
Assay [1] has as its target B2. The assay can be described thus: ITC; SDE2 construct or Ub titrated into USP5 construct; ITC200, 298 K; 50 mM HEPES, 100 mM NaCl, 1 mM TCEP, pH 7.5; duplicate experiments.
Assay [2] has as its target B3. The description is as above.
For a further assay, the target named is T1, USP5 C335R, recombinant. The description is as above.
Assay [3] addresses T2, ubiquitin (monoubiquitin) (human, UniProt P0CG48 1-76).
T2 construct: ubiquitin, human
The assay can be described thus: HDX-MS; USP5^WT 6 µM with or without 200 µM ubiquitin or SDE2UBL, 30 min; 20 mM HEPES pH 7.5, 150 mM NaCl, 1 mM DTT; exchange 0.3 to 3000 s; pepsin digestion.

The target in assay [4] is T3, Ub-PA activity-based probe (His-Ub-PA) (human, UniProt P0CG48 1-75, C-terminal propargylamide (PA) warhead).
T3 construct: ubiquitin residues 1-75; The plasmid name holds a 3C site between His and Ub; also called Ub-ABP; source: plasmid pTXB1_His-3C-Ub (1-75); obtained by the same method as HA-SDE2UBL-PA
The experiment in a line: activity-based probe labelling (covalent adduct on SDS-PAGE); purified DUB 1 µM with probe 2 µM in 50 mM Tris pH 7.5, 1 mM DTT, 37 °C; quenched with LDS/DTT; shows only the covalent probe-enzyme adduct as a band shift.

Assay [5] has as its target T2, ubiquitin (monoubiquitin). The assay can be described thus: ITC; SDE2 construct or Ub titrated into USP5 construct; ITC200, 298 K; 50 mM HEPES, 100 mM NaCl, 1 mM TCEP, pH 7.5; duplicate experiments.
Assay [6] has as its target B2. The assay can be described thus: activity-based probe labelling (covalent adduct on SDS-PAGE); purified DUB 1 µM with probe 2 µM in 50 mM Tris pH 7.5, 1 mM DTT, 37 °C; quenched with LDS/DTT; shows only the covalent probe-enzyme adduct as a band shift.

On to B1, for which the Kd stood at 26.6 µM in assay [1]; 1.67 µM in assay [2]; 2.15 µM with USP5 C335R, recombinant. Also, the “stoichiometry N” value stood at 2 in assay [2] and 1 with USP5 C335R, recombinant.

On to B2, for which the binding result in assay [3] and in assay [4] was “binds” each time.

On to B3, for which the Kd in assay [5] amounted to 0.0117 ± 0.0091 µM.

As for B4, in assay [6], the binding result is recorded as “binds”.

With B5, in assay [1], the binding result is recorded as “binds”.
